Km data for one protein are collected here from patent publication US6288037A, “Substrates and inhibitors for cysteine protease ICH-1” (BASF Aktiengesellschaft, priority 1996, dated 2001).

Substrate in this data set: CC(=O)N[C@H](C(=O)N[C@@H](CC(=O)O)C(=O)N[C@H](C(=O)N[C@@H](C)C(=O)N[C@@H](CC(=O)O)C(=O)Nc1ccc([N+](=O)[O-])cc1)C(C)C)C(C)C
Kind of data set: In vitro proteolysis assay with chromogenic para-nitroaniline-labeled peptide substrate (absorbance 405 nm). Format: biochemical, Human. The settings on record: other: pNA substrate cleaved by N-His Ich-1, 30° C. The source says: To identify peptide substrates for Ich-1, candidate peptides were used in in vitro proteolysis assays with recombinant Ich-1 protein. Human Ich-1 enzyme (the nucleotide and amino acid sequences for which are disclosed in Wang, L., et al. (1994) Cell 78:739-750) was expressed recombinantly with an N-terminal polyhistidine tag by methods described in Kamens, J., et al. (1995) J. Biol. Chem. 270:15250-15256. The resulting enzyme, called N-His Ich-1, contains Ich-1 amino acid residues 167-435, with an initiator and polyhistidine tag fused to the amino terminus. […]
A peptidic aldehyde inhibitor of Ich-1 was designed based upon the optimal peptide substrate (Peptide 43) described in Example 3. […] The ability of this peptidic aldehyde inhibitor to inhibit N-His Ich-1 activity was determined in in vitro proteolysis assays using a chromogenic para-nitroaniline-labeled peptide substrate. […]
To perform the proteolysis assay, N-His Ich-1 was preincubated for 30 minutes at 30° C. in 160 μl of a reaction buffer containing 100 mM sodium acetate (pH 6.2), 20% (v/v) glycerol, 5 mM DTT, 0.5 mM EDTA, […]. […] The incubation of N-His Ich-1 with the peptide substrate at 30° C. was continued, and the catalytic hydrolysis of peptide substrate was monitored by the change in absorbance of the samples at 405 nm due to release of pNA as a function of time. […]

B1: N-His Ich-1 (Homo sapiens) (protein)
chain 1: YQTHFQLAYRLQSRPRGLALVLSNVHFTGEKELEFRSGGDVDHSTLVTLFKLLGYDVHVLCDQTAQEMQEKLQNFAQLPAHRVTDSCIVALLSHGVEGAIYGVDGKLLQLQEVFQLFDNANCPSLQNKPKMFFIQACRGDETDRGVDQQD
chain 2: GKNHAGSPGCEESDAGKEKLPKMRLPTRSDMICGYACLKGTAAMRNTKRGSWYIEALAQVFSERACDMHVADMLVKVNALIKDREGYAPGTEFHRCKEMSEYCSTLCRHLYLFPGHPPT
notes: contains Ich-1 amino acid residues 167-435, with an initiator and polyhistidine tag fused to the amino terminus; initiator (Met) + polyhistidine tag (N); made in house
A word on the Km: it is the concentration of substrate that gives half-maximal velocity. For the protein B1, the Km amounted to 42 µM.
